Results reported in patent publication US20240360242A1 (KISOJI BIOTECHNOLOGY, published 2024).

Experiments:
[1] = biological target: T1, human TROP2 cysteine poor domain (CPD), recombinant (human, UniProt P09758 147-274); assay: immunoblot, 1 µg/mL antibody, anti-human IgG-HRP
T1 sequence: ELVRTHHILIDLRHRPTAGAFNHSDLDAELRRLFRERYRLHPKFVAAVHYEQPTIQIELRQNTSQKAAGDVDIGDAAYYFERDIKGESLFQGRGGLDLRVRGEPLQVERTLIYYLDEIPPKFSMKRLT
Method: Samples of recombinant proteins of human TROP2 extracellular domain (ECD) (Sino Biological, Cat. no. 10428-H08H) and human TROP2 cysteine poor domain (CPD) were prepared for SDS-PAGE analysis under reducing or non-reducing conditions with NuPAGE™ LDS Sample Buffer (ThermoFisher Cat. no NP0007) with NuPAGE™ Sample Reducing Agent (ThermoFisher Cat. no. NP0004) or without reducing agent. Samples under reducing condition were denatured by heating at 70° C. for 10 minutes. Samples (16 μL) were loaded onto 4-12% Bis-Tris mini-gels (1.5 mm, 15 wells) or 250 ng of samples were loaded onto 14% Tris-glycine mini-gels alongside a BSA standard. […] Gels were stained using GelCode™ staining reagent (Thermo Fisher, Cat. no. 24594).
Proteins were transferred to nitrocellulose membranes using the iBlot™ system (Thermo Fisher, Cat. no. IB301031) according to the manufacturer's instructions. Membranes were blocked by incubation in PBS/0.1% Tween™ 20/5% Milk for 1 hour at room temperature with shaking, followed by incubation with 1 μg/mL of Anti-TROP2 antibodies or the isotype control (IgG1 isotype) in 20 mL of PBS/0.1% Tween™ 20/5% milk. Membranes were washed three times for 10 minutes with PBS/0.1% Tween™ 20. Membranes were incubated with HRP-conjugated goat anti-human IgG antibody (Sigma-Aldrich, AP113P) diluted at 1:10000 in blocking buffer for 1 hour at room temperature with shaking. Membranes were washed three times for 10 minutes with PBS/0.1% Tween™ 20. The signal was visualized using Super Signal™ West Pico PLUS (Thermo Fisher, Cat. no. 34080) according to the manufacturer's instructions. Images were captured using the Azure Biosystem imaging system.

[2] = biological target: T2, HEK-TROP2 Δ27-73 (human, UniProt P09758); assay: flow cytometry, 100 nM antibody, transiently transfected HEK cells, APC anti-human Fc
T2 construct: deletion of residues 27-73, transiently expressed on HEK cells
T2 sequence (membrane protein on transfected HEK cells, looked up): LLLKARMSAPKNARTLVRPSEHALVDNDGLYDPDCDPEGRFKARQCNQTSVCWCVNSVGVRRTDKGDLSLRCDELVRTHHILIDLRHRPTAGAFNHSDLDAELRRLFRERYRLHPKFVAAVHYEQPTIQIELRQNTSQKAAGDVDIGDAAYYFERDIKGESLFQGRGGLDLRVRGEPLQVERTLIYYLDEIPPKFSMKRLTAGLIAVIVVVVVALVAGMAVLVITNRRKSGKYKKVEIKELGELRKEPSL
Method: (§1) To determine the effect of TROP2 truncations on the binding ability of anti-TROP2 sdAbs, the HEK parental cells were transiently transfected with human TROP2 mutants by lipofectamine. 24 hours after transfection, cells were collected and stained with anti-TROP2 antibodies (FIG. 13A and FIG. 13B). In brief, 1×10⁵ cells were incubated with an Fc receptor blocking antibody (1/100 dilution) for 10 minutes at room temperature. Anti-TROP2 antibodies were diluted in FACS staining buffer to 100 nM and added and incubated with cells for 30 minutes on ice. After washing three times with FACS staining buffer, APC-conjugated secondary antibodies recognizing the human Fc region (Biolegend, Cat #410712) were mixed with cells. After staining for 30 minutes, cells were washed three times, followed by resuspension into 100 μL of 7-Amino-Actinomycin D (7-AAD) solution (BD Biosciences, Cat #559925).

[3] = biological target: T3, HEK-TROP2 Δ27-85 (human, UniProt P09758); assay: as above
T3 construct: deletion of residues 27-85, transiently expressed on HEK cells
T3 sequence (membrane protein on transfected HEK cells, looked up): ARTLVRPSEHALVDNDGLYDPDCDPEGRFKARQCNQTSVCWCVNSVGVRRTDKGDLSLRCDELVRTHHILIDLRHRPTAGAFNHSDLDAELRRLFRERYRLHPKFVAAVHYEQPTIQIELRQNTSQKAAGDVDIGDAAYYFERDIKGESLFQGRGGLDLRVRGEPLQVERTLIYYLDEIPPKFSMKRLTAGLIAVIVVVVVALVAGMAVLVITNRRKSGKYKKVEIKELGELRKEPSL
Method: as §1

[4] = biological target: T4, recombinant human TROP2 extracellular domain (aa 1-274) comprising His tag (human, UniProt P09758 27-274); assay: competitive ELISA on coated recombinant human TROP2, competitor KD003-His (14285.7 pM per text), anti-His-HRP
T4 construct: Used here for all assays on recombinant human TROP2 (ELISA, immunoblot, SPR, crystal), although only some of them name the catalogue number; also called human recombinant TROP2; recombinant human TROP2 protein; not shown: His tag
T4 sequence: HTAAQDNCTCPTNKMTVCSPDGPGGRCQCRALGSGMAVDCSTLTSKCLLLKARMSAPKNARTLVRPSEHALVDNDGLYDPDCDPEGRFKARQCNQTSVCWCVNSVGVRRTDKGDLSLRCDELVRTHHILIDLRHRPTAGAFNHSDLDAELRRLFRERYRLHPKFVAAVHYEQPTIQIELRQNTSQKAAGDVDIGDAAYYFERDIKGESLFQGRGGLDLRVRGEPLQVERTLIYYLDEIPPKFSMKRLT
Method: The epitope characterization was assessed by competitive ELISA (FIG. 8 and FIG. 9). Microplates were coated with human recombinant TROP2 at 4° C. overnight. After washing, plates were blocked with blocking buffer (PBS+2% BSA), for 1 hour at room temperature. Meanwhile, the dilution for anti-TROP2 VHH sdAbs was prepared with blocking buffer making two different dilutions depending on the tag. For sdAbs with His tag, the antibody was diluted to 28571.4 pM. For sdAbs without tag, antibodies were serially diluted from 2857142.9 pM to 0.29 pM (8 dilutions, 10×). After that, equal volume of the his-tagged sdAbs and serial diluted non-tagged sdAbs were mixed, to make the final concentration of his-tagged sdAbs 14285.7 pM and non-tagged sdAbs from 1428571.4 pM to 0.14 pM. After washing two times, the mixed antibody contents were added into the wells and the plates were incubated for 2 hours at room temperature. The HRP-conjugated anti-6× His was diluted to 1:5000 and added to the wells after washing three times. Any unbound conjugate was removed by washing after 1 hour incubation at room temperature, and the colorimetric reaction was performed by adding the same volume of Supersignal ELISA Pico Luminol/Enhancer and SuperSignal ELISA Pico Stable Peroxide Solution and detected on SpectraMax i3x Microplate Reader. Positive and negative controls were included in each plate.

B1: KD001 (antibody, human IgG1, V domains shown)
VH: QVQLQESGGGMVHPGGSLRLSCAASGFTFSGSDMSWVRQAPGKGPEWVSYITSGGTTYYPDSVKGRFTISRDNAKNTLYLQMNSLTPDDTALYRCAKARLTDSHYVEDAWGQGTQVTVSS
notes: also called anti-TROP2 sdAb KD001
**Q.** Does B1 bind [1]?
**A.** no binding (tested: 1 µg/mL)

**Q.** Does B1 bind [2]?
**A.** no binding (tested: 100 nM)

**Q.** Does B1 bind [3]?
**A.** no binding (tested: 100 nM)

**Q.** And the “IC50 (read off the curve)” value [4]?
**A.** ~40 nM

B2: KD005 (antibody, human IgG1, V domains shown)
VH: QVQLQESGGGLVEAGGSLRLSCAASGFTFSGSDMSWVRQAPGKGPEWVSYITSGGTTYYPDSVKGRFTISRDNAKNTLYLQMNSLKPDDTALYRCAKSRLTDSHYVEDAWGQGTQVTVSS
notes: also called anti-TROP2 sdAb KD005
**Q.** Does B2 bind [1]?
**A.** no binding (tested: 1 µg/mL)

**Q.** Does B2 bind [2]?
**A.** no binding (tested: 100 nM)

**Q.** Does B2 bind [3]?
**A.** no binding (tested: 100 nM)

**Q.** What about the “IC50 (read off the curve)” value [4] of the same binder?
**A.** ~40 nM

B3: KD004 (antibody, human IgG1, V domains shown)
VH: QVQLQESGGGLVQPGRSLRLSCAASGFTFSGSDMSWVRQAPGKGPEWVSYITGSGTTYYPDSVKGRFTTSRDNAKNMLYLQMNSLKPDDTALYRCAKARLTDSHYVEDAWGQGTQVTVSS
notes: also called anti-TROP2 sdAb KD004
**Q.** Does B3 bind [1]?
**A.** no binding (tested: 1 µg/mL)

**Q.** Does B3 bind [2]?
**A.** no binding (tested: 100 nM)

**Q.** Does B3 bind [3]?
**A.** no binding (tested: 100 nM)

**Q.** What about the “IC50 (read off the curve)” value [4] of the same binder?
**A.** ~40 nM

B4: KD002 (antibody, human IgG1, V domains shown)
VH: QVQLQESGGGMVQVGGSLRLSCAASGFPFSSADMSWVRQAPGKGPEWVSYINADGSKTYYPDSVKGRFTISRDNAKNTLYLLMNNLKPEDTALYRCARAKLTDTHYVEDYWGQGTQVTVSS
notes: also called anti-TROP2 sdAb KD002
**Q.** Which results are given for B4?
**A.** binding result [1]: no binding (tested: 1 µg/mL); binding result [2]: no binding (tested: 100 nM); binding result [3]: no binding (tested: 100 nM); IC50 (read off the curve) [4]: ~60 nM

B5: KD003 (antibody, human IgG1, V domains shown)
VH: QVQLQESGGGMVQPGGSLRLSCAASGFTFSNYDMSWVRQAPGKGPEWVSYINAGGSNTDYPDSVKGRFTISRDNAKNMLYLLMNNLKPEDTALYRCARAKLTDTHYVEDYWGQGTQVTVSS
notes: also called anti-TROP2 sdAb KD003
**Q.** Does B5 bind [1]?
**A.** no binding (tested: 1 µg/mL)

**Q.** Does B5 bind [2]?
**A.** no binding (tested: 100 nM)

**Q.** Does B5 bind [3]?
**A.** no binding (tested: 100 nM)

**Q.** What about the “IC50 (read off the curve)” value [4] of the same binder?
**A.** ~30 nM

B6: KD007 (antibody, human IgG1, V domains shown)
VH: QVQLQESGGGLVQPGGSLRLSCAASGFAFSFYAMAWYRQAPGKQRDMVATITAYGNTNYADSVKGRFTTSRDNAKNTVYLQMNSLKPEDTAVYVCNANLPSASHNYWGQGTQVTVSS
notes: also called anti-TROP2 sdAb KD007
**Q.** Does B6 bind [2]?
**A.** no binding (tested: 100 nM)

**Q.** Does B6 bind [3]?
**A.** no binding (tested: 100 nM)
